Source: patent publication US20260234233A1 (PETMEDIX, published 2026)

Experiments:
[1] = target: NGF (species not stated) (Homo sapiens (Human)) (UniProt P01138); assay: cell-based or functional assay
[2] = target: Human NGF (human) (UniProt P01138); assay: cell-based or functional assay
[3] = target: T1, Human proNGF (human, UniProt P01138 19-241); assay: SPR, Biacore 8K, binder captured on Protein A chip, ligand as analyte
T1 construct: This is the precursor form with the pro-peptide; also called h-proNGF; the pro-peptide

[4] = target: T2, Human NGF (human, UniProt P01138 122-241); assay: cell-based or functional assay
[5] = target: T3, Human NT-4 (human, UniProt P34130 81-210); assay: SPR, Biacore 8K, binder captured on Protein A chip, ligand as analyte
T3 construct: mature; also called hNT-4
T3 sequence (looked up): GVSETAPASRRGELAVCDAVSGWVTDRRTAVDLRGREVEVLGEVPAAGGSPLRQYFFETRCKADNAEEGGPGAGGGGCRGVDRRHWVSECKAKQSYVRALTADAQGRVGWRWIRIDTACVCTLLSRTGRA

[6] = target: T4, Human BDNF (human, UniProt P23560 129-247); assay: as above
T4 construct: mature; also called hBDNF
T4 sequence (looked up): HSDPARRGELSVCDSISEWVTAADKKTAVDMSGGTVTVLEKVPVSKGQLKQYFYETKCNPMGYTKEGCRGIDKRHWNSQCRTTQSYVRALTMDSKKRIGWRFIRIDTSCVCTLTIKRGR

[7] = target: T5, Human NT-3 (human, UniProt P20783 139-257); assay: as above
T5 construct: mature; also called hNT-3
T5 sequence (looked up): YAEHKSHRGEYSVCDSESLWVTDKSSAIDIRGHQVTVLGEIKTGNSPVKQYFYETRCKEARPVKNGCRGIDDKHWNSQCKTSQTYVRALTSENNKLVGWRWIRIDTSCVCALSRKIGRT

[8] = target: T2, Human NGF; assay: as above
Protocol: (§1) Binding affinity of fusion proteins to human and rat NGF was assessed using Biacore 8K (Cytiva). Briefly, Protein A Sensor Chip (Cytiva) was docked into Biacore 8K, equilibrated for 30′ at RT and then Running Buffer (10 mM HEPES pH7.4 150 mM NaCl 3 mM EDTA and 0.005% Tween20) was applied to the SPR chip surface.
(§2) PetML119var was diluted into running buffer at 6 nM concentration. These were immobilised using 90 sec association at 10 uL/min as capturing step, followed by injection of running buffer to remove any unbound product.

[9] = target: T1, Human proNGF; assay: as above; remark: listed apart in the source
Protocol: as §1, §2

T1 sequence (P01138 19-241): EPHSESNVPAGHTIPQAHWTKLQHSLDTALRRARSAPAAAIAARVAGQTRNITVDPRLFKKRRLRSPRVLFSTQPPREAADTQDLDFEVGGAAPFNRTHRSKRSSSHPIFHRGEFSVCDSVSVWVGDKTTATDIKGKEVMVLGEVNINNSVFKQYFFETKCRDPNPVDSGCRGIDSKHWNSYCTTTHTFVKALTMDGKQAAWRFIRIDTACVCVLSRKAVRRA
Chain of Human NGF (human) (P01138 122-241): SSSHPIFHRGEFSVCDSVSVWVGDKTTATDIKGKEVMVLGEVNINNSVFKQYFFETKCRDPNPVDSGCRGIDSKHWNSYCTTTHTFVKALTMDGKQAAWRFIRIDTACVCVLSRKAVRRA
T2 sequence (P01138 122-241): as above

Binder | Kd [5] [nM] | Kd [6] [nM] | Kd [7] [nM] | also measured
Bedinvetmab (antibody, V domains shown) VH: EVQLVESGGDLVKPGGSLRLSCVASGFTFSSHGMHWVRQSPGKGLQWVAVINSGGSSTYYTDAVKGRFTISRDNAKNTVYLQMNSLRAEDTAMYYCAKESVGGWEQLVGPHFDYWGQGTLVIVSS VL: QSVLTQPTSVSGSLGQRVTISCSGSTNNIGILGASWYQLFPGKAPKLLVYGNGNRPSGVPDRFSGADSGDSVTLTITGLQAEDEADYYCQSFDTTLGAHVFGGGTHLTVL | – | – | – | Bottom (%), best-fit, PathHunter TrkA activation assay with NGF at 2 nM [1]: 5.35%; IC50 (nM), PathHunter TrkA activation assay with NGF at 2 nM [1]: 4.24 nM; Top (%), best-fit, PathHunter TrkA activation assay with NGF at 2 nM [1]: 123%; TrkA inhibition, PathHunter TrkA activation assay with NGF at 2 nM [1]: 100%; IC50 (nM), inhibition of NGF-dependent TF-1 cell proliferation [2]: 0.89 nM; IC Max, inhibition of NGF-dependent TF-1 cell proliferation [2]: 100; ICMAX (%), inhibition of NGF-dependent TF-1 cell proliferation [2]: 96.8%; Kd [3]: 0.0018 nM
PetML119-S109Y (Canine p75NTR ECD S109Y-canine IgGB wt Fc) (Fc fusion, Signal peptide left out as for PetML119; If the listing carries them, the end of the range is 426) KEACPTGLYTHSGECCKACNLGEGVAQPCGANQTVCEPCLDSVTFSDVVSATEPCKPCTECVGLQSMSAPCVEADDAVCRCAYGYYQDETTGRCEACRVCEAGSGLVFYCQDRQNTVCEECPDGTYSDEANHVDPCLPCTVCEDTERQLRECTRWADAECEEIPGRGGGGRENGRVPRPPDCPKCPAPEMLGGPSVFIFPPKPKDTLLIARTPEVTCVVVDLDPEDPEVQISWFVDGKQMQTAKTQPREEQFNGTYRVVSVLPIGHQDWLKGKQFTCKVNNKALPSPIERTISKARGQAHQPSVYVLPPSREELSKNTVSLTCLIKDFFPPDIDVEWQSNGQQEPESKYRTTPPQLDEDGSYFLYSKLSVDKSRWQRGDTFICAVMHEALHNHYTQKSLSHSPGK | 12 | 16.7 | 8.3 | IC50 (nM), inhibition of NGF-dependent TF-1 cell proliferation [4]: 0.17 nM; ICMAX (%), inhibition of NGF-dependent TF-1 cell proliferation [4]: 88.5%
PetML119-D134L (Canine p75NTR ECD D134L-canine IgGB wt Fc) (Fc fusion, Signal peptide left out as for PetML119; also called D134L mutant) KEACPTGLYTHSGECCKACNLGEGVAQPCGANQTVCEPCLDSVTFSDVVSATEPCKPCTECVGLQSMSAPCVEADDAVCRCAYGYYQDETTGRCEACRVCEAGSGLVFSCQDRQNTVCEECPDGTYSDEANHVLPCLPCTVCEDTERQLRECTRWADAECEEIPGRGGGGRENGRVPRPPDCPKCPAPEMLGGPSVFIFPPKPKDTLLIARTPEVTCVVVDLDPEDPEVQISWFVDGKQMQTAKTQPREEQFNGTYRVVSVLPIGHQDWLKGKQFTCKVNNKALPSPIERTISKARGQAHQPSVYVLPPSREELSKNTVSLTCLIKDFFPPDIDVEWQSNGQQEPESKYRTTPPQLDEDGSYFLYSKLSVDKSRWQRGDTFICAVMHEALHNHYTQKSLSHSPGK | 101 | 26.7 | 8.3 | fold reduced affinity relative to PetML119wt [8]: 20 ×
PetML119-E75T (Canine p75NTR ECD E75T-canine IgGB wt Fc) (Fc fusion, The signal peptide (first 19 residues) is left out as for PetML119) KEACPTGLYTHSGECCKACNLGEGVAQPCGANQTVCEPCLDSVTFSDVVSATEPCKPCTECVGLQSMSAPCVEATDAVCRCAYGYYQDETTGRCEACRVCEAGSGLVFSCQDRQNTVCEECPDGTYSDEANHVDPCLPCTVCEDTERQLRECTRWADAECEEIPGRGGGGRENGRVPRPPDCPKCPAPEMLGGPSVFIFPPKPKDTLLIARTPEVTCVVVDLDPEDPEVQISWFVDGKQMQTAKTQPREEQFNGTYRVVSVLPIGHQDWLKGKQFTCKVNNKALPSPIERTISKARGQAHQPSVYVLPPSREELSKNTVSLTCLIKDFFPPDIDVEWQSNGQQEPESKYRTTPPQLDEDGSYFLYSKLSVDKSRWQRGDTFICAVMHEALHNHYTQKSLSHSPGK | 98.5 | 15.4 | 5.1 | fold reduced affinity relative to PetML119wt [8]: 40 ×
PetML119-S109H (Canine p75NTR ECD S109H-canine IgGB wt Fc) (Fc fusion) KEACPTGLYTHSGECCKACNLGEGVAQPCGANQTVCEPCLDSVTFSDVVSATEPCKPCTECVGLQSMSAPCVEADDAVCRCAYGYYQDETTGRCEACRVCEAGSGLVFHCQDRQNTVCEECPDGTYSDEANHVDPCLPCTVCEDTERQLRECTRWADAECEEIPGRGGGGRENGRVPRPPDCPKCPAPEMLGGPSVFIFPPKPKDTLLIARTPEVTCVVVDLDPEDPEVQISWFVDGKQMQTAKTQPREEQFNGTYRVVSVLPIGHQDWLKGKQFTCKVNNKALPSPIERTISKARGQAHQPSVYVLPPSREELSKNTVSLTCLIKDFFPPDIDVEWQSNGQQEPESKYRTTPPQLDEDGSYFLYSKLSVDKSRWQRGDTFICAVMHEALHNHYTQKSLSHSPGK | 9.1 | 16.2 | 7.9 | IC50 (nM), inhibition of NGF-dependent TF-1 cell proliferation [4]: 2.15 nM; ICMAX (%), inhibition of NGF-dependent TF-1 cell proliferation [4]: 93.5%
PetML119-V133R (Canine p75NTR ECD V133R-canine IgGB wt Fc) (Fc fusion, Signal peptide left out as for PetML119) KEACPTGLYTHSGECCKACNLGEGVAQPCGANQTVCEPCLDSVTFSDVVSATEPCKPCTECVGLQSMSAPCVEADDAVCRCAYGYYQDETTGRCEACRVCEAGSGLVFSCQDRQNTVCEECPDGTYSDEANHRDPCLPCTVCEDTERQLRECTRWADAECEEIPGRGGGGRENGRVPRPPDCPKCPAPEMLGGPSVFIFPPKPKDTLLIARTPEVTCVVVDLDPEDPEVQISWFVDGKQMQTAKTQPREEQFNGTYRVVSVLPIGHQDWLKGKQFTCKVNNKALPSPIERTISKARGQAHQPSVYVLPPSREELSKNTVSLTCLIKDFFPPDIDVEWQSNGQQEPESKYRTTPPQLDEDGSYFLYSKLSVDKSRWQRGDTFICAVMHEALHNHYTQKSLSHSPGK | 8.3 | 42.3 | 7.2 | –
PetML119 (Canine p75NTR ECD-canine IgGB wt Fc protein fusion) (Fc fusion, Made in CHO cells; also called PetML119wt; p75NTR-Fc) KEACPTGLYTHSGECCKACNLGEGVAQPCGANQTVCEPCLDSVTFSDVVSATEPCKPCTECVGLQSMSAPCVEADDAVCRCAYGYYQDETTGRCEACRVCEAGSGLVFSCQDRQNTVCEECPDGTYSDEANHVDPCLPCTVCEDTERQLRECTRWADAECEEIPGGGGRENGRVPRPPDCPKCPAPEMLGGPSVFIFPPKPKDTLLIARTPEVTCVVVDLDPEDPEVQISWFVDGKQMQTAKTQPREEQFNGTYRVVSVLPIGHQDWLKGKQFTCKVNNKALPSPIERTISKARGQAHQPSVYVLPPSREELSKNTVSLTCLIKDFFPPDIDVEWQSNGQQEPESKYRTTPPQLDEDGSYFLYSKLSVDKSRWQRGDTFICAVMHEALHNHYTQKSLSHSPGK | 7.2 | 14.4 | 4.9 | fold higher affinity for proNGF than for mature NGF [9]: 171 ×; Kd [3]: 0.0019 nM
